Data as given in the supplement of paper PMC10126150.
± gives the standard deviation of the averaged measurements.

Test system: ATP
Assay: switch fluorescence ratio, 500 uM ATP over buffer (Cy3 cluster intensity, sum of 5 cycles each) (fold (ratio)); higher = stronger signal-on switching upon ATP binding; sequences stand for … in TCGTCGGCAGCGTCAGATGTGTATAAGAGACAGTTTTTTTTTTTTTTTTTTTTTTTTT…TC
Details: aptamer strand: ATP DNA aptamer (quencher-CACCTGGGGGAGTATTGCGGAGGAAGG + anchor), 100 nM annealed; ATP concentration: 500 uM
In short: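 Clusters with intensities outside 100-1000 RFU were excluded. The remaining Cy3-labelled switching-strand clusters on a modified Illumina MiSeq flow-cell had been annealed to 100 nM quencher-labelled ATP aptamer and imaged in selection buffer, then after 15 min with 500 uM ATP at 22 °C, for five cycles separated by NaOH stripping and re-annealing. The fluorescence ratio, averaged per switch-domain sequence, is each cluster's summed target-cycle Cy3 intensity over its summed buffer-cycle Cy3 intensity.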
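Further: ATP exposure 15 min at 22 °C before imaging.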

Sequence	switch fluorescence ratio
GGTATTAGGA	0.9669 ± 0.0076
GGTATTCCGT	1.03 ± 0.045
GGTATTCGAA	1.054 ± 0.0022
GGTATTGAGT	0.992 ± 0.03
GGTATTGCGT	0.977 ± 0.042
GGTATTGGGA	0.989 ± 0.018
GGTATTGGTT	0.987 ± 0.048
GGTATTTGGT	0.988 ± 0.03
GGTATTTTGG	0.953 ± 0.035
GGTCAAGGGG	0.9826 ± 0.0088
GGTCAGGTGA	0.972 ± 0.073
GGTCATGGCG	1.02 ± 0.098
GGTCATTGTT	0.9635 ± 0.0031
GGTCCGGAGC	1.1577 ± 0.00066
GGTCCGTCGA	1.02 ± 0.064
GGTCCTCGTG	0.998 ± 0.027
GGTCCTGGGC	1.01 ± 0.013
GGTCGCAGTC	0.9649 ± 0.0016
GGTCGCCGGG	0.976 ± 0.081
GGTCGGGGAG	0.9987 ± 0.0028
GGTCGGGGGA	0.99 ± 0.061
GGTCGGGTAC	0.9676 ± 0.0094
GGTCGGTATT	1.08 ± 0.12

Sequence	switch fluorescence ratio
GGTCGGTGCG	0.9914 ± 0.0098
GGTCGGTTGG	0.97591 ± 0.00041
GGTCGTGCGC	0.996 ± 0.029
GGTCTAGAGT	1 ± 0.014
GGTCTAGGCA	0.987 ± 0.02
GGTCTGCAGC	1.003 ± 0.0062
GGTCTGGGGG	0.955 ± 0.012
GGTCTGGGGT	1.09 ± 0.21
GGTCTTAACT	0.967 ± 0.028
GGTCTTCTTT	0.994 ± 0.029
GGTCTTTTTT	1.02 ± 0.05
GGTGAAGACC	0.9598 ± 0.0086
GGTGACAAAT	0.9777 ± 0.003
GGTGACCTTG	0.9891 ± 0.0037
GGTGACGCAC	1.62 ± 0.057
GGTGAGGGTA	0.991 ± 0.012
GGTGAGTCGG	0.9925 ± 0.0029
GGTGAGTTAC	0.98 ± 0.013
GGTGATAAAT	0.991 ± 0.025
GGTGATACGG	1.012 ± 0.0022
GGTGATAGTT	0.994 ± 0.017
GGTGCAAGCT	1.019 ± 0.0023
GGTGCAAGTT	1.02 ± 0.042

Sequence	switch fluorescence ratio
GGTGCAGGTA	0.984 ± 0.025
GGTGCCGTGC	0.995 ± 0.034
GGTGCGATTG	1.07 ± 0.052
GGTGCGTAGG	1 ± 0.012
GGTGCGTTGG	1.03 ± 0.042
GGTGCTGGAG	0.98 ± 0.011
GGTGGACTTG	1 ± 0.041
GGTGGAGGGA	0.987 ± 0.031
GGTGGAGGGG	1 ± 0.0022
GGTGGATACA	1.005 ± 0.0036
GGTGGGAATG	0.99 ± 0.023
GGTGGGACAA	0.966 ± 0.042
GGTGGGAGAC	1.01 ± 0.03
GGTGGGAGCA	1.04 ± 0.034
GGTGGGAGGG	1.008 ± 0.0073
GGTGGGATTT	0.9506 ± 0.0055
GGTGGGGAAA	1.0255 ± 0.00086
GGTGGGGAGA	1.017 ± 0.0086
GGTGGGGAGT	1.01 ± 0.021
GGTGGGGCAG	0.9643 ± 0.0041
GGTGGGGCGA	1.01 ± 0.041
GGTGGGGGGG	1 ± 0.036
GGTGGGGGGT	0.989 ± 0.029

Sequence	switch fluorescence ratio
GGTGGGGTTA	0.984 ± 0.038
GGTGGGTTGT	1.03 ± 0.076
GGTGGTAGGA	0.98 ± 0.041
GGTGGTAGTT	1.012 ± 0.003
GGTGGTGAGC	1 ± 0.026
GGTGGTTGTA	0.919 ± 0.043
GGTGTAACAG	0.991 ± 0.012
GGTGTACCGG	1.004 ± 0.0092
GGTGTAGGAC	1.03 ± 0.012
GGTGTCTGCG	1.01 ± 0.013
GGTGTGATTT	1 ± 0.025
GGTGTGCATC	1 ± 0.018
GGTGTGGCCG	1.02 ± 0.062
GGTGTGGCGC	0.955 ± 0.0063
GGTGTGGGAT	1.01 ± 0.057
GGTGTGGTCA	0.977 ± 0.035
GGTGTGTATC	1.01 ± 0.02
GGTGTGTGGT	1.002 ± 0.0029
GGTGTTACGT	0.971 ± 0.017
GGTGTTAGGT	0.9925 ± 0.0029
GGTGTTCAGC	0.981 ± 0.04
GGTGTTCAGG	1.042 ± 0.0083
GGTGTTGGGG	1.0211 ± 3.7e-05

Sequence	switch fluorescence ratio
GGTGTTGGTT	1.008 ± 0.0093
GGTGTTGTG	0.974 ± 0.081
GGTGTTGTTG	1.017 ± 0.0023
GGTTAAACAA	1.01 ± 0.016
GGTTAACTTA	0.979 ± 0.042
GGTTAAGCTT	1.007 ± 0.0078
GGTTAAGGAT	0.9884 ± 0.0023
GGTTAAGGCC	1.033 ± 0.007
GGTTAAGGGA	0.982 ± 0.024
GGTTAAGGGG	1.05 ± 0.13
GGTTAAGGTC	1 ± 0.029
GGTTAAGTTT	0.969 ± 0.025
GGTTAATGGA	0.9833 ± 0.0035
GGTTAATGGC	1.05 ± 0.039
GGTTACAGTT	1.036 ± 0.01
GGTTACATTG	0.993 ± 0.019
GGTTACGGC	1.07 ± 0.17
GGTTAGCGG	0.9599 ± 0.0026
GGTTAGGGAC	1.04 ± 0.04
GGTTAGGGAG	1.002 ± 0.0089
GGTTAGGGGG	1 ± 0.052
GGTTAGTACT	0.999 ± 0.017
GGTTATAGGG	0.9802 ± 0.008

Sequence	switch fluorescence ratio
GGTTATAGTT	1.01 ± 0.011
GGTTATCGGC	1.01 ± 0.017
GGTTATGAGT	0.99 ± 0.017
GGTTATTGGA	0.995 ± 0.058
GGTTATTTTT	1.01 ± 0.036
GGTTCAAAAC	0.997 ± 0.059
GGTTCAACGG	0.982 ± 0.014
GGTTCAATCT	0.9815 ± 0.0012
GGTTCACGGG	0.983 ± 0.015
GGTTCACTTT	1.02 ± 0.033
GGTTCAGGGG	2.26 ± 1.8
GGTTCCTATG	0.9909 ± 0.0079
GGTTCTGAGC	0.986 ± 0.02
GGTTCTGGGT	1 ± 0.02
GGTTCTGTCC	1.03 ± 0.021
GGTTCTTGAA	0.994 ± 0.019
GGTTCTTGG	0.995 ± 0.062
GGTTCTTTTC	0.996 ± 0.037
GGTTGAAATG	0.939 ± 0.072
GGTTGAGCGT	1.01 ± 0.047
GGTTGAGCTC	0.973 ± 0.063
GGTTGAGGAC	1.01 ± 0.057
GGTTGAGGG	0.997 ± 0.001

Sequence	switch fluorescence ratio
GGTTGAGGGA	0.979 ± 0.016
GGTTGATAGA	1.01 ± 0.028
GGTTGATGGG	0.999 ± 0.038
GGTTGCATCA	0.994 ± 0.032
GGTTGCATCG	0.986 ± 0.012
GGTTGCGGGT	0.9874 ± 0.0056
GGTTGCGTCG	1.01 ± 0.014
GGTTGGACCA	0.9602 ± 0.0032
GGTTGGATTA	0.9787 ± 0.00083
GGTTGGCCGC	1.02 ± 0.032
GGTTGGGGGG	1 ± 0.036
GGTTGGGTTA	1.033 ± 0.0083
GGTTGGTGCA	1.02 ± 0.013
GGTTGTAGGC	1.02 ± 0.017
GGTTGTGAAG	0.994 ± 0.043
GGTTGTGCGA	0.98322 ± 0.00037
GGTTGTTAGG	0.9796 ± 0.0055
GGTTTAAAAT	0.9581 ± 0.0094
GGTTTAAGTG	0.979 ± 0.052
